Test [1] has as its target HIV-1 93UG077 Env (HIV-1). Put plainly: cell-based or functional assay.
Test [2] concerns the target HIV-1 APV13 Env (HIV-1). Description: cell-based or functional assay.
The target of test [3] is HIV-1 APV17 Env (HIV-1). Description: cell-based or functional assay.
Test [4] addresses HIV-1 Env of isolate MGRM-F1-014 (pseudovirus) (HIV-1). Description: cell-based or functional assay.
Test [5] deals with HIV-1 JR-CSF Env N332A (HIV-1 isolate JR-CSF) (UniProt P20871). Description: cell-based or functional assay.
In test [6] the target is HIV-1 JR-CSF Env T388A (HIV-1 isolate JR-CSF) (UniProt P20871). Description: cell-based or functional assay.
Test [7] deals with HIV-1 MGRM-D-001 Env (HIV-1). Description: cell-based or functional assay.
Test [8] deals with HIV-1 envelope glycoprotein (Env) of isolate JR-FL, on pseudovirus (HIV-1). Put plainly: cell-based or functional assay.
Test [9] deals with HIV-1 Env of isolate 92BR020 (Clade B) (HIV-1). Description: cell-based or functional assay.
The target in test [10] is HIV-1 Env of isolate 92UG005 (Clade D) (HIV-1). Put plainly: cell-based or functional assay.
Test [11] concerns the target HIV-1 Env of isolate CMU02 (CRF01_AE) (HIV-1). Description: cell-based or functional assay.
Test [12] deals with HIV-1 Env of isolate IAVI-C22 (Clade C) (HIV-1). Put plainly: cell-based or functional assay.
The target of test [13] is HIV-1 Env of isolate NL43 (positive control) (HIV-1). Description: cell-based or functional assay.
In test [14] the target is HIV-1 Env of pseudovirus MGRM-F1-013 (clade F) (HIV-1). Description: cell-based or functional assay.
Test [15] deals with aMLV envelope (negative control). Description: cell-based or functional assay.
The target in test [16] is JR-FL GP120 ΔV3 (HIV-1 JR-FL). Put plainly: ELISA, antigen-coated wells, mAb titrated; EC50 by nonlinear regression.
Test [17] has as its target HIV-1 94UG103 envelope protein (Env) on pseudotyped virus (HIV-1 strain 94UG103). Put plainly: cell-based or functional assay.
Test [18] has as its target HIV-1 92TH021 envelope glycoprotein (Env) on pseudovirus (HIV-1). Description: cell-based or functional assay.
Test [19] concerns the target HIV-1 92UG005 envelope glycoprotein (Env) on pseudovirus (HIV-1). Description: cell-based or functional assay.
For test [20], the target named is HIV-1 92UG024 envelope glycoprotein (Env) on pseudovirus (HIV-1). Put plainly: cell-based or functional assay.
For test [21], the target named is HIV-1 94UG103 envelope glycoprotein (Env) on pseudovirus (HIV-1). Description: cell-based or functional assay.
In test [22] the target is HIV-1 CMU02 envelope glycoprotein (Env) on pseudovirus (HIV-1). Put plainly: cell-based or functional assay.
Test [23] has as its target HIV-1 MGRM-A-010 envelope glycoprotein (Env) on pseudovirus (HIV-1). Description: cell-based or functional assay.
The target of test [24] is HIV-1 MGRM-D-001 envelope glycoprotein (Env) on pseudovirus (HIV-1). Description: cell-based or functional assay.
Test [25] has as its target HIV-1 NL43 envelope glycoprotein (Env) on pseudovirus (HIV-1). Description: cell-based or functional assay.
Test [26] deals with HIV-1 JR-CSF Env I323A (HIV-1 (isolate JR-CSF, clade B)) (UniProt P20871). Description: cell-based or functional assay.
Test [27] deals with HIV-1 JR-CSF Env Q337A (HIV-1 isolate JR-CSF) (UniProt P20871). Description: cell-based or functional assay.
Test [28] concerns the target HIV-1 JR-CSF Env R327A (HIV-1 isolate JR-CSF) (UniProt P20871). Description: cell-based or functional assay.
Test [29] addresses HIV-1 JR-CSF Env V292A (HIV-1 (isolate JR-CSF, clade B)) (UniProt P20871). Description: cell-based or functional assay.

Experimental findings from patent US20240132578A1 are described below.

On to 4858_P08 (PGT-123) (antibody), for which the IC50, pseudovirus neutralization in [1] amounted to 0.0303 µg/mL; in test [2], 0.222 µg/mL; in test [3], 0.18 µg/mL; in test [7], 0.215 µg/mL; in test [8] it was 0.014 µg/mL. In [4], this substance yielded an IC50 (µg/mL), pseudovirus neutralization of 0.111 µg/mL. Besides, the Fold IC50 increase relative to wild-type in test [5] is greater than 200 fold; in [6] it was 0.2 fold.

For b12 (antibody), the IC90 (neutralization of pseudovirus) in [9] is greater than 50 µg/mL; in test [10], greater than 50 µg/mL; in [11], 34.2 µg/mL; in test [12], 29.6 µg/mL; in [13] it was 0.28 µg/mL; in test [15], greater than 50 µg/mL. In addition, the IC50 in test [14] is greater than 50 µg/mL.

For 4838_L06 (PGT-121) (antibody), in test [16], the EC50 was greater than 10 µg/mL.

Turning to 1495_C14 (PGC14) (antibody), in test [17], the IC50, Neutralizing Antibody Assay, Virus/Ab Incubation 1 hour was greater than 50 µg/mL and the IC50, Neutralizing Antibody Assay, Virus/Ab Incubation 18 hour was greater than 50 µg/mL. This substance also had an IC50 in test [14] of 6 µg/mL.

Take PGT-142 (4995_E20) (antibody): the IC50, pseudovirus neutralization in test [18] was 0.0022 µg/mL; in test [19], greater than 10 µg/mL; in test [20] it was greater than 10 µg/mL; in test [21], greater than 10 µg/mL; in [22], greater than 10 µg/mL; in [23], 0.0578 µg/mL. Besides, the IC50, pseudovirus neutralization is greater than 10 µg/mL in [24] and 0.712 µg/mL in test [25].

For the substance 5136_H01 (PGT-131) (antibody), the Fold IC50 increase relative to wild-type in test [26] was 38 fold; in [27], 1.3 fold; in [28], 19 fold; in test [29] it was 1.4 fold.

On to 4E10 (antibody), for which the IC90 (neutralization of pseudovirus) was greater than 50 µg/mL in [9]; greater than 50 µg/mL in test [10]; 13.4 µg/mL in test [11]; 16.4 µg/mL in test [12]; 29.6 µg/mL in test [13]; greater than 50 µg/mL in test [15].

As for PGT-143 (4980_N08) (antibody), the IC50, pseudovirus neutralization was 0.0028 µg/mL in test [18]; greater than 10 µg/mL in test [19]; greater than 10 µg/mL in test [20]; greater than 10 µg/mL in test [21]; greater than 10 µg/mL in test [22]; 0.0657 µg/mL in test [23]. Also, the values for the IC50, pseudovirus neutralization in test [24] and in [25] were greater than 10 µg/mL and 0.585 µg/mL, respectively.

Turning to 4877_D15 (PGT-122) (antibody), the IC50, pseudovirus neutralization in [1] was found to be 0.191 µg/mL; in [2] it was 0.992 µg/mL; in test [3], 0.522 µg/mL; in test [7], 0.867 µg/mL; in test [8] it was 0.026 µg/mL. The substance further came in with an IC50 (µg/mL), pseudovirus neutralization in test [4] of 0.195 µg/mL.

In test [16], 5345_I01 (PGT-137) (antibody) came in with a concentration for a half-maximal effect (EC50) of 0.1 µg/mL.

Turning to 2F5 (antibody), the IC90 (neutralization of pseudovirus) is greater than 50 µg/mL in test [9]; greater than 50 µg/mL in test [10]; 12.2 µg/mL in test [11]; greater than 50 µg/mL in test [12]; 19.3 µg/mL in test [13]; greater than 50 µg/mL in [15]. Also, the half-maximal inhibitory concentration (IC50) in [14] was determined as 4.57 µg/mL.

In the case of 5343_B08 (PGT-135) (antibody), the Neutralization IC80 is greater than 10 µg/mL in test [18]; greater than 10 µg/mL in [19]; 0.054 µg/mL in test [20]; greater than 10 µg/mL in test [21]; greater than 10 µg/mL in test [22]; greater than 10 µg/mL in [23]. For the same substance, the Neutralization IC80 in test [24] and in [25] was greater than 10 µg/mL throughout. For the same substance, the Neutralization IC90 in test [18] was greater than 10 µg/mL; in [19], greater than 10 µg/mL; in [20], 0.122 µg/mL; in test [21], greater than 10 µg/mL; in [22] it was greater than 10 µg/mL; in test [23], greater than 10 µg/mL. Moreover, the Neutralization IC90 in test [24] and in test [25] was greater than 10 µg/mL each time. In addition, the Neutralization IC95 is greater than 10 µg/mL in test [18]; greater than 10 µg/mL in test [19]; 0.267 µg/mL in test [20]; greater than 10 µg/mL in [21]; greater than 10 µg/mL in [22]; greater than 10 µg/mL in test [23]. Also, the Neutralization IC95 in [24] and in test [25] was greater than 10 µg/mL each time. Besides, the neutralization IC50 is greater than 10 µg/mL in test [18]; greater than 10 µg/mL in test [19]; 0.0139 µg/mL in test [20]; greater than 10 µg/mL in test [21]; greater than 10 µg/mL in [22]; greater than 10 µg/mL in test [23]. Moreover, the results for the neutralization IC50 in test [24] and in [25] were greater than 10 µg/mL and 6.79 µg/mL, respectively. For the same substance, the Fold IC50 increase relative to wild-type was greater than 250 fold in [5]; 2.1 fold in test [27]; 0.67 fold in test [28]; 0.1 fold in test [6]; 2 fold in test [29]. In test [16], this substance showed an EC50 of 0.2 µg/mL.

With 5329_C19 (PGT-136) (antibody), the EC50 in test [16] was determined as 0.1 µg/mL.

Turning to 5147_N06 (PGT-130) (antibody), the IC50, pseudovirus neutralization in test [1] was greater than 10 µg/mL; in test [2] it was 0.0345 µg/mL; in test [3] it was greater than 10 µg/mL; in test [7], greater than 10 µg/mL.

5141_B17 (PGT-126) (antibody): the IC50, pseudovirus neutralization in test [1] turned out to be 0.0256 µg/mL; in test [2], 0.012 µg/mL; in test [3], 0.501 µg/mL; in test [7], 0.0639 µg/mL; in [8] it was 0.014 µg/mL. The substance also yielded an IC50 (µg/mL), pseudovirus neutralization in [4] greater than 50 µg/mL. Further, the Fold IC50 increase relative to wild-type in test [5] came out at 181 fold; in [27], 0.4 fold; in [28] it was 2.2 fold; in [29], 5 fold.

PGT-141 (4964_G22; 4993_K13) (antibody): the IC50, pseudovirus neutralization in [18] is 0.0019 µg/mL; in test [19], greater than 10 µg/mL; in test [20], greater than 10 µg/mL; in test [21], greater than 10 µg/mL; in test [22] it was greater than 10 µg/mL; in [23], 0.0563 µg/mL. Also, the values for the IC50, pseudovirus neutralization in [24] and in test [25] were greater than 10 µg/mL and 0.856 µg/mL, respectively.

Take 5123_A06 (PGT-125) (antibody): the IC50, pseudovirus neutralization in [1] turned out to be 0.0262 µg/mL; in [2] it was 0.0128 µg/mL; in test [3], 7.31 µg/mL; in test [7] it was 2.31 µg/mL; in test [8], 0.009 µg/mL. In [4], the IC50 (µg/mL), pseudovirus neutralization is greater than 50 µg/mL. Besides, the Fold IC50 increase relative to wild-type amounted to 2 fold in test [5], 0.8 fold in [27] and 3.3 fold in test [29].

In the case of PGT-144 (4970_K22) (antibody), the IC50, pseudovirus neutralization in test [18] was 0.0934 µg/mL; in test [19], greater than 10 µg/mL; in test [20], greater than 10 µg/mL; in test [21], greater than 10 µg/mL; in [22], greater than 10 µg/mL; in test [23], 4.02 µg/mL. In addition, the IC50, pseudovirus neutralization in [24] and in [25] was greater than 10 µg/mL in each case.
